Measured values reported in PMC3575409, “Identification of a Novel Protein-Protein Interaction Motif Mediating Interaction of GPCR-Associated Sorting Proteins with G Protein-Coupled Receptors” (PLoS ONE, 2013).
“And” between values parts separate entries of the source, which are not always exact repeats. Equal entries are not always repeated.

Tests used:
[1] = tested on: full-length CNR2 (cannabinoid receptor type 2); assay: SPR saturation binding, CNR2; design: species or system human
Procedure: The human ADRB2 and CNR2 receptors were produced using the P. pastoris expression system as previously described, [16]. After methanol-induced receptor expression, cells were washed with PBS pH 7.0 and resuspended in ice-cold buffer A (50 mM Tris-HCl pH 7.4, 500 mM NaCl, 10% glycerol, 5 mM EDTA, 1 mM PMSF, 2 mM DDT). Cells were then lysed with two cycles of 20 s shaking and 20 s cooling on ice using 0.5 mm glass beads in a FastPrep 24 device. Unbroken cells and cell debris were removed by centrifugation (3000 g, 5 min, 4°C) and the membrane fraction from the supernatant was pelleted by ultracentrifugation (100,000 g, 45 min, 4°C). […] Finally membranes were resuspended in buffer B and quantified with the bicinchoninic acid (BCA) method (Pierce).
Approximately 150 mg membrane proteins were extracted by 5 min incubation at room temperature in buffer C (50 mM Tris-HCl pH 7.4, 500 mM NaCl, 10% glycerol, 1 mM PMSF, 2 mM DTT, 50 mM imidazole, 1% (w/v) DDM, 0.1% (w/v) CHS). […] Imidazole was removed from the eluted fraction using a HiTrap 5 ml desalting column (GE Healthcare), purified proteins were quantified using the BCA assay (Pierce) and receptor integrity was analyzed by SDS-PAGE. […]

[2] = tested on: MyrPalm-mYFP in HEK293 cells; assay: Co-immunoprecipitation, MyrPalm-mYFP (negative control); assay type: cell-based; conditions: 48 h expression, anti-GFP immunoprecipitation
Procedure: HEK293 cells stably expressing N-terminal GFP-tagged ADRB1, ADRB2, CALCR and M1 or MyrPalm-mYFP were transfected with pcDNA3.1 containing the sequence for a central domain of GASP-1 (AA 380 to 1073) using JetPEI reagent (polyplus transfection) according to the instructions from the manufacturer. After 48 h of expression, cells were washed twice with PBS and lysed in a buffer containing 10 mM Tris-HCl, pH 7.4, 150 mM NaCl, 25 mM KCl, 0.3% Triton X-100 and cOmplete protease inhibitors (Roche) for 1 h at 4°C under agitation. 500 µg of cleared lysates were incubated with 1 µg of a mouse monoclonal anti-GFP antibody (Invitrogen) overnight at 4°C, followed by an incubation with 40 µl of protein A-Sepharose beads for an additional 2 h at 4°C. Beads were then washed five times in lysis buffer and precipitates were resolved on an 8% gel by SDS–PAGE and electrotransferred to immobilon-P membranes (Millipore) in 50 mM Tris-boric acid for 1 h at 300 mA. Membranes were blocked with 5% non-fat powder milk in TBS-Tween (50 mM Tris-HCl pH 8, 150 mM NaCl, 0.4% Tween-20) for 1 h at room temperature. […] For immunodetection of GASP or GFP-tagged receptors directly from cell lysates, 10 µg of proteins were loaded on SDS gels and analyzed following the procedure described above. Finally, membranes were washed in TBS-Tween and detected by chemiluminescence (ECL prime, GE Healthcare). […]

B1: central domain of GASP-1: central portion of GASP-1 (AA 380 to 1073) that contains 19 GASP motif (protein)
chain: MTKEEAKTKARARAKQEARSEEEALIGTWFWATDESSMADEASIESSLQVEDESIIGSWFWTEEEASMGTGASSKSRPRTDGERIGDSLFGAREKTSMKTGAEATSESILAADDEQVIIGSWFWAGEEVNQEAEEETIFGSWFWVIDAASVESGVGVSCESRTRSEEEEVIGPWFWSGEQVDIEAGIGEEARPGAEEETIFGSWFWAENQTYMDCRAETSCDTMQGAEEEEPIIGSWFWTRVEACVEGDVNSKSSLEDKEEAMIPCFGAKEEVSMKHGTGVRCRFMAGAEETNNKSCFWAEKEPCMYPAGGGSWKSRPEEEEDIVNSWFWSRKYTKPEAIIGSWLWATEESNIDGTGEKAKLLTEEETIINSWFWKEDEAISEATDREESRPEAEEGDIIGSWFWAGEEDRLEPAAETREEDRLAAEKEGIVGSWFGAREETIRREAGSCSKSSPKAEEEEVIIGSWFWEEEASPEAVAGVGFESKPGTEEEEITVGSWFWPEEEASIQAGSQAVEEMESETEEETIFGSWFWDGKEVSEEAGPCCVSKPEDDEEMIVESWFWSRDKAIKETGTVATCESKPENEEGAIVGSWFEAEDEVDNRTDNGSNCGSRTLADEDEAIVGSWFWAGDEAHFESNPSPVFRAICRSTCSVEQEPDPSRRPQSWEEVTVQFKPGPWGRVGFPSISPFRFPKE
modifications: left off: GST, N-terminal, kept
notes: central portion of GASP-1 (AA 380 to 1073) that contains 19 GASP motif
dissociation rate constant k d ([1]; 25°C, 50 mM Tris-HCl pH 7.4, 150 mM NaCl, 0.1% DDM, 0.01% CHS, captured GST-tagged central domain (AA 380–1073)): 6.5±0.1×10^−4 s^−1 and < 10^−3 s^−1
kinetics of the interaction ([1]; full-length CNR2): very stable and had a slow association rate
co-immunoprecipitation with MyrPalm-mYFP [2]: no co-immunoprecipation was observed
